# Key:
# RANKL = assay: cell-based or functional assay
# [1] = system: miRNA expression in RAW264.7 cells; assay: qRT-PCR of osteoclast miRNA expression after sICAM1 treatment; format: cell-based, murine; conditions: for sICAM1-induced miRNA expression changes: 50 ng/ml sICAM1, 20 μM inhibitor, 6 days
# Description: (§1) mRNA was analyzed by synthesizing cDNA using the Superscript III First-strand kit (Invitrogen) and qPCR performed using the Power SYBR® green PCR master mix (Applied Biosystems). Mature miRNAs were reverse transcribed using the TaqMan Reverse Transcription Kit (Applied Biosystems) followed by real-time PCR using TaqMan miRNA assays (Applied Biosystems). All analysis was performed using an ABI 7900HT PCR machine according to the manufacturer's instructions. A standard curve was created from serial dilutions from cDNA for each gene of interest. Values were normalized by the expression of GAPDH or RNU6B in each sample.
# RAW264.7 cells [2] = assay: RANKL-induced osteoclast differentiation, TRAP staining; format: cell-based, murine; conditions: for osteoclast differentiation / TRAP+ osteoclasts: 6 days
# Excerpt: HeLa and RAW264.7 cells (American Type Culture Collection, ATCC) were maintained in Dulbecco's modified Eagle's medium (DMEM) supplemented with 10% fetal bovine serum (FBS), penicillin/streptomycin (GIBCO), and fungizone. MOCP-5 cells were maintained in αMEM with 10% FBS and antibiotics. MDA-MB-231 parental cells (ATCC) and all sublines (SCP2, SCP4, SCP6, SCP28, SCP46) were maintained in DMEM with 10% FBS and antibiotics. The murine 4T1 and 4T1.2 cells, and human TSU-Pr1, and TSU-PR1-B2 cells were similarly maintained in DMEM with 10% FBS and antibiotics. For osteoclast differentiation assays, cells were treated with indicated concentration of RANKL in DMEM plus 10% FBS, with media changes performed every 2 days. Primary osteoclasts were isolated from bone marrow cells flushed from the tibia of 6-week-old wild type Balb/c mice and filtered through a […] cell-strainer before overnight culture in aMEM with 10% FBS. The following day 1×10^6 non-adherent cells were plated in 6-well plates supplemented with 50 ng/mL M-CSF for 2 days, followed by 50 ng/mL RANKL for an additional 4-5 days, with media changes every 2 days. Human osteoclasts were obtained from Lonza (2T-110) and differentiated by treatment with 33 ng/ml M-CSF and 66 ng/ml RANKL. CM was collected from the indicated sub-confluent tumor cells grown in DMEM with […] for 24 hours. The CM was passed through a 0.2 μm filter before addition to 1×10^5 RAW264.7 or MOCP-5 cells in a 6-well plate. The media was replaced with fresh CM daily. Cells were TRAP stained on day 6 using a leukocyte acid phosphatase kit (Sigma) and TRAP^+-multineucliated cells were quantified as mature osteoclasts. […]
# RAW264.7 cells [3] = assay: In vitro bone resorption assay on bovine bone slices; format: cell-based, murine; conditions: miRNA transfection, 50 ng/ml RANKL, relative to control cells
# Description: 5×10^4 pre-osteoclast cells were seeded onto 1 mm thick slices of bovine bone cut using a diamond saw and sterilized by immersion in 70% ethanol. Cells were cultured for 10 days as indicated in 6-well plates, transferred to fresh plates and washed to remove osteoclasts. Bone slices were stained in a solution of 1% toludine blue in 0.5% sodium tetraborate, destained in PBS plus 1% Triton X-100, and imaged by light microscopy.
# In vitro bone resorption assay was then used to measure the effect of ectopic miRNA expression on osteoclast activity. […] Referring to this figures, scale bar represents 200 μm. Results were statistically significant with p<0.01 (**) and p<0.001 (***). […] Since these miRNAs may inhibit osteoclast differentiation or function by targeting different mRNAs, the repression of osteoclast differentiation was further examined using combinations of inhibitory miRNAs. Given that transient transfection with 10 pM of miRNA precursors was sufficient to inhibit up to approximately 90% of osteoclast differentiation, RAW264.7 cells were treated with a combination of miRNAs at a reduced concentration of 1 pM total precursors.
# [4] = system: Pu.1, Nfatc1, Ctsk in RAW264.7 cells; assay: Western blot of Pu.1, Nfatc1, Ctsk after miRNA transfection and RANKL; format: cell-based, murine; conditions: transient miRNA transfection, 50 ng/ml RANKL
# Description: SDS lysis buffer (0.05 mM Tris-HCl, 50 mM BME, 2% SDS, 0.1% Bromophenol blue, 10% glycerol) was used to collect protein from cells. Samples were sonicated and heat denatured protein was equally loaded, separated on a 10% SDS-page gel, transferred onto a pure nitrocellulose membrane (BioRad), and blocked with 5% milk. Primary antibodies for immunoblotting included: anti-IκBα (1:1000 dilution, Cell signaling, 44D4), anti-p-p65 (1:500 dilution, Santa Cruz Biotechnology), anti-Pu.1 (5 μg/ml, Abcam, AB88082), anti-Nfatc1 (1 μg/ml, Abcam, AB25916), anti-Ctsk (4 μg/ml, Abcam, AB19027), anti-β-actin (1:5000 dilution, ABcam), for loading control. Membranes were incubated with horseradish peroxidase (HRP)-conjugated anti-mouse secondary antibody (1:2000 dilution, GE Healthcare) or anti-rabbit secondary antibody (1:2000 dilution, GE Healthcare) for 1 h and chemiluminescence signals were detected by ECL substrate (GE Healthcare).
# To better examine the capacity of the miRNAs to inhibit osteoclast differentiation, osteoclast markers were examined in RAW264.7 cells transfected with the miRNA of interest, followed by RANKL treatment. FIG. 5F illustrates Western blot analysis for Pu.1, Nfatc1, or Ctsk in RAW264.7 cells after transient transfection with indicated miRNA and treatment with 50 ng/ml RANKL. Data in the figure represent average ±SEM; p values were based on Student's t-test.
# [5] = system: osteoclast marker genes in RAW264.7 cells; assay: qRT-PCR of osteoclast marker genes; format: cell-based, murine; conditions: sICAM1 together with 50 ng/ml RANKL versus RANKL alone
# Description: as §1
# RAW264.7 cells [6] = assay: Chemotaxis assay of RAW264.7 cells; format: cell-based, murine; conditions: series of sICAM1 concentrations
# Description: Chemotaxis assay was performed as described (Lu et al., 2011) with the following modifications: 10^5 RAW264.7 cells in 100 μl of 0.5% BSA in DMEM were seeded into the upper chamber of 8 μm pore transwell inserts (BD Bioscience) in a 24-well plate. 300 μl of 0.5% BSA in DMEM containing a series of concentrations of recombinant ICAM1 (R&D Systems) was added to the bottom chamber. After 8 h in culture, methanol was added to the bottom chamber to fix migrated cells. Cells in the upper chamber were removed with a cotton swab and stained for 30 mins in 0.2% crystal violet for quantification using a microscope.
molecule,measurement,setting,value
OPG (receptor),"decrease in osteoclast differentiation of RAW264.7 cells induced by 30 ng/ml RANKL, with 200 ng/ml OPG",RANKL,> 80%
O=C(Nc1cc(Cl)cc2c1[nH]c1cnccc12)c1cccnc1 [PS1145],sICAM1-induced miRNA expression changes,[1],abrogated
same,sICAM1-induced miRNA expression changes,[1]; listed as PS1154,higher levels of miRNA expression
"miR-33a: miRNA, SEQ ID NO: 74; delivered as pre-miRNA precursor; down-regulated during osteoclastogenesis (nucleic acid, listed as Homo sapiens, pre-miRNA precursor hairpin, chemistry not given here) CUGUGGUGCAUUGUAGUUGCAUUGCAUGUUCUGGUGGUACCCAUGCAAUGUUUCCACAGUGCAUCACAG",osteoclast maturation and activity,RAW264.7 cells [2]; all models tested,Partial inhibition
same,bone resorption (osteoclast activity),RAW264.7 cells [3],only a small decrease in bone resorption
same,"expression of Pu.1, Nfatc1, Ctsk (Western blot)",[4],retained expression of all three osteoclast genes
"sICAM1: soluble ICAM1, the cleaved extracellular domain of ICAM1; recombinant ICAM1 (R&D Systems, 796-IC-050) (protein) QVSIHPREAFLPQGGSVQVNCSSSCKEDLSLGLETQWLKDELESGPNWKLFELSEIGEDSSPLCFENCGTVQSSASATITVYSFPESVELRPLPAWQQVGKDLTLRCHVDGGAPRTQLSAVLLRGEEILSRQPVGGHPKDPKEITFTVLASRGDHGANFSCRTELDLRPQGLALFSNVSEARSLRTFDLPATIPKLDTPDLLEVGTQQKLFCSLEGLFPASEARIYLELGGQMPTQESTNSSDSVSATALVEVTEEFDRTLPLRCVLELADQILETQRTLTVYNFSAPVLTLSQLEVSEGSQVTVKCEAHSGSKVVLLSGVEPRPPTPQVQFTLNASSEDHKRSFFCSAALEVAGKFLFKNQTLELHVLYGPRLDETDCLGNWTWQEGSQQTLKCQAWGNPSPKMTCRRKADGALLPIGVVKSVKQEMNGTYVCHAFSSHGNVTRNVYLTVLYHSQNN",osteoclast differentiation,RAW264.7 cells [2]; 50 ng/ml sICAM1 alone,not sufficient to induce differentiation
same,time to osteoclast differentiation,RAW264.7 cells [2]; 50 ng/ml sICAM1 and 50 ng/ml RANKL together,≤ 2 days
same,osteoclast differentiation,RAW264.7 cells [2]; 50 ng/ml sICAM1 combined with 10 ng/ml RANKL,additive effect
same,TRAP+ osteoclasts,RAW264.7 cells [2]; 50 ng/ml sICAM1 with 4 ng/ml RANKL,high levels
same,TRAP+ osteoclasts,RAW264.7 cells [2]; low levels of sICAM1 with 4 ng/ml RANKL,no effect
same,time course of osteoclast marker gene expression,[5],reduced the time necessary for osteoclast differentiation
same,RAW264.7 cell migration,RAW264.7 cells [6],increased migration in a dose dependent manner
same,expression of miRNAs downregulated during osteoclastogenesis,"[1]; 50 ng/ml sICAM1, magnified after co-treatment with RANKL",significant inhibition
